Measured values as given in publication PMC3735542, “Light Driven CO2 Fixation by Using Cyanobacterial Photosystem I and NADPH-Dependent Formate Dehydrogenase” (PLoS ONE, 2013).
Like-named read-outs stand apart in the source and are kept apart here.

Columns and labels:
Test in all cases: purified protein
[1] = test system: T1, NC(=O)c1ccc[n+]([C@@H]2O[C@H](COP(=O)(O)OP(=O)(O)OC[C@H]3O[C@@H](n4cnc5c(N)ncnc54)[C@H](OP(=O)(O)O)[C@@H]3O)[C@@H](O)[C@H]2O)c1; format: biochemical, Pseudomonas sp. 101; details: 500 mM formate, PBS, 0.05% Triton X-100
T1 construct: synthetic gene in pET22b (NdeI/NotI), C-terminal His tag kept, E. coli BL21(DE3), about 44 kDa

[2] = test system: T2, NC(=O)c1ccc[n+]([C@@H]2O[C@H](COP(=O)(O)OP(=O)(O)OC[C@H]3O[C@@H](n4cnc5c(N)ncnc54)[C@H](O)[C@@H]3O)[C@@H](O)[C@H]2O)c1; format: biochemical, Pseudomonas sp. 101; details: 500 mM formate, PBS, 0.05% Triton X-100
T2 construct: synthetic gene in pET22b (NdeI/NotI), C-terminal His tag kept, E. coli BL21(DE3), about 44 kDa

purified protein [3] = substrate: NC(=O)c1ccc[n+]([C@@H]2O[C@H](COP(=O)(O)OP(=O)(O)OC[C@H]3O[C@@H](n4cnc5c(N)ncnc54)[C@H](OP(=O)(O)O)[C@@H]3O)[C@@H](O)[C@H]2O)c1; format: biochemical, Arabidopsis thaliana
purified protein [4] = substrate: O=CO; details: 2 mM NADP+, PBS, 0.05% Triton X-100; same doubt on QN or QH
purified protein [5] = substrate: NC(=O)c1ccc[n+]([C@@H]2O[C@H](COP(=O)(O)OP(=O)(O)OC[C@H]3O[C@@H](n4cnc5c(N)ncnc54)[C@H](OP(=O)(O)O)[C@@H]3O)[C@@H](O)[C@H]2O)c1; format: biochemical, Solanum tuberosum; details: 500 mM formate, PBS, 0.05% Triton X-100; positions 197/199 from methods and Table 1, b33 prints 195/197

Pseudomonas FDH (PsFDH) (Pseudomonas sp. 101; D222Q/H224N)
Km [1]: 350 ± 10 µM
Km [2]: 1000 ± 600 µM
Vmax [2]: 0.55 µM/min

B1: Arabidopsis FDH (AtFDH) (Arabidopsis thaliana; D227Q/L229N) (protein)
chain: ASSGDSKKIVGVFYKANEYATKNPNFLGCVENALGIRDWLESQGHQYIVTDDKEGPDCELEKHIPDLHVLISTPFHPAYVTAERIKKAKNLKLLLTAGIGSDHIDLQAAAAAGLTVAEVTGSNVVSVAEDELMRILILMRNFVPGYNQVVKGEWNVAGIAYRAYDLEGKTIGTVGAGRIGKLLLQRLKPFGCNLLYHQRNQMAPELEKETGAKFVEDLNEMLPKCDVIVINMPLTEKTRGMFNKELIGKLKKGVLIVNNARGAIMERQAVVDAVESGHIGGYSGDVWDPQPAPKDHPWRYMPNQAMTPHTSGTTIDAQLRYAAGTKDMLERYFKGEDFPTENYIVKDGELAPQYR
notes: synthetic gene in pET22b (NdeI/NotI), C-terminal His tag kept, E. coli BL21(DE3); partly digested on purification; primer encodes CNLLYH-X-R-X-QMAPEL
Km (purified protein [3]): 910 ± 70 µM
Km (purified protein [4]): 96000 ± 14000 µM

B2: potato FDH (PoFDH) (Solanum tuberosum; D224Q/L226H) (protein)
chain: LQASPGPKKIVGVFYKANEYAEMNPNFLGCAENALGIREWLESKGHQYIVTPDKEGPDCELEKHIPDLHVLISTPFHPAYVTAERIKKAKNLQLLLTAGIGSDHVDLKAAAAAGLTVAEVTGSNTVSVAEDELMRILILVRNFLPGHHQVINGEWNVAAIAHRAYDLEGKTVGTVGAGRIGRLLLQRLKPFNCNLLYHQRHKMDSELENQIGAKFEEDLDKMLSKCDIVVINTPLTEKTKGMFDKERIAKLKKGVLIVNNARGAIMDTQAVVDACNSGHIAGYSGDVWYPQPAPKDHPWRYMPNQAMTPHISGTTIDAQLRYAAGTKDMLDRYFKGEDFPAENYIVKDGELAPQYR
notes: synthetic gene in pET22b (NdeI/NotI), C-terminal His tag kept, E. coli BL21(DE3); primer encodes CNLLYH-X-R-X-KMDSEL
Km (purified protein [5]): 620 ± 50 µM
